Data from PMC3305458, “E2F1 Mediated Apoptosis Induced by the DNA Damage Response Is Blocked by EBV Nuclear Antigen 3C in Lymphoblastoid Cells” (PLoS Pathogens, 2012).

Target: flag-tagged wild-type E2F1 (residues 1–437) (UniProt Q01094 1-437)
Test: cell-based or functional assay

flag-tagged wild-type E2F1 (residues 1–437), sequence (Q01094 whole entry, the tested form may be a part): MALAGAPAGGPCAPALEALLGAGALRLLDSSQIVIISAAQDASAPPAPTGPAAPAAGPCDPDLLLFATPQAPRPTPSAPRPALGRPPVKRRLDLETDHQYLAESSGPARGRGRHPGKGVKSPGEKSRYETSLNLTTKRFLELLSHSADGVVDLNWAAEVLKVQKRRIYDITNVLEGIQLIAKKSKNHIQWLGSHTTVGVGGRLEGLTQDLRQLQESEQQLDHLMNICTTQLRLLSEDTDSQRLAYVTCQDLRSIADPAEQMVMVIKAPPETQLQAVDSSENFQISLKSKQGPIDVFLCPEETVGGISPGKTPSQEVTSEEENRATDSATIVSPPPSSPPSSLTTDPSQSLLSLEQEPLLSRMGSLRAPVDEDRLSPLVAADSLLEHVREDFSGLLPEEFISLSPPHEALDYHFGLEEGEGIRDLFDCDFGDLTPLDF

B1: myc-tagged EBNA3C (residues 1–992) (natural protein)
chain: MESFEGQGDSRQSPDNERGDNVQTTGEHDQDPGPGPPSSGASERLVPEESYSRDQQPWGQSRGDENRGWMQRIRRRRRRRAALSGHLLDTEDNVPPWLPPHDITPYTARNIRDAACRAVKQSHLQALSNLILDSGLDTQHILCFVMAARQRLQDIRRGPLVAEGGVGWRHWLLTSPSQSWPMGYRTATLRTLTPVPNRVGADSIMLTATFGCQNAARTLNTFSATVWTPPHAGPREQERYAREAEVRFLRGKWQRRYRRIYDLIELCGSLHHIWQNLLQTEENLLDFVRFMGVMSSCNNPAVNYWFHKTIGNFKPYYPWNAPPNENPYHARRGIKEHVIQNAFRKAQIQGLSMLATGGEPRGDATSETSSDEDTGRQGSDVELESSDDELPYIDPNMEPVQQRPVMFVSRVPAKKPRKLPWPTPKTHPVKRTNVKTSDRSDKAEAQSTPERPGPSEQSSVTVEPAHPTPVEMPMVILHQPPPVPKPVPVKPTPPPSRRRRGACVVYDDDVIEVIDVETTEDSSSVSQPNKPHRKHQDGFQRSGRRQKRAAPPTVSPSDTGPPAVGPPAAGPPAAGPPAAGPPAAGPPAAGPPAAGPRILAPLSAGPPAAGPHIVTPPSARPRIMAPPVVRMFMRERQLPQSTGRKPQCFWEMRAGREITQMQQEPSSHLQSATQPTTPRPSWAPSVCALSVMDAGKAQPIESSHLSSMSPTQPISHEEQPRYEDPDAPLDLSLHPDVAAQPAPQAPYQGYQEPPAPQAPYQGYQEPPPPQAPYQGYQEPPAHGLQSSSYPGYAGPWTPRSQHPCYRHPWAPWSQDPVHGHTQGPWDPRAPHLPPQWDGSAGHGQDQVSQFPHLQSETGPPRLQLSLVPLVSSSAPSWSSPQPRAPIRPIPTRFPPPPMPLQDSMAVGCDSSGTACPSMPFASDYSQGAFTPLDINATTPKRPRVEESSHGPARCSQATAEAQEILSDNSEISVFPKDAKQTDYDASTESELD
**Q.** Which “proliferation of G418-selected Saos-2 cells after serum starvation and 5 µM etoposide, counted for 6 days: E2F1 plus EBNA3C against E2F1 alone or E2F1 plus EBNA3C residues 366-620” value does the source give for B1 here?
**A.** ~4 fold
